From paper PMC4449531, “Identification and characterization of a novel group of legume-specific, Golgi apparatus-localized WRKY and Exo70 proteins from soybean”

T1: GmWRP1 (Glycine max, UniProt I1MBG9 1-332)
T1 sequence: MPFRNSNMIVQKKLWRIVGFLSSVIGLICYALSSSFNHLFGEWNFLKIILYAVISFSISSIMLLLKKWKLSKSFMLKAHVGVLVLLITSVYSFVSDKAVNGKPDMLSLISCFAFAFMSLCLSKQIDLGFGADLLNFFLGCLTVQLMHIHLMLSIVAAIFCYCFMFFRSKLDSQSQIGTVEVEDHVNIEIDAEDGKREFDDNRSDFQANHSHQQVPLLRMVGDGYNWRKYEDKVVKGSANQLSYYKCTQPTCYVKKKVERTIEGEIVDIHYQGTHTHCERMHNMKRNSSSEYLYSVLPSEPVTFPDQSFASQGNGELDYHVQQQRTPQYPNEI


How the values were obtained:
AtWRKY33 = AtWRKY33 (Arabidopsis, UniProt Q8S8P5 1-519); experiment: EMSA; not stated; EMSA as in Zheng et al., 2006; conditions: protein: recombinant; tags: His (pET32a); label: labelled by Klenow fill-in
GmWRP1 = molecular target: T1, GmWRP1; experiment: EMSA; not stated; EMSA as in Zheng et al., 2006; conditions: protein: recombinant; tags: His (pET32a); label: labelled by Klenow fill-in

AtWRKY33, sequence (Q8S8P5 whole entry): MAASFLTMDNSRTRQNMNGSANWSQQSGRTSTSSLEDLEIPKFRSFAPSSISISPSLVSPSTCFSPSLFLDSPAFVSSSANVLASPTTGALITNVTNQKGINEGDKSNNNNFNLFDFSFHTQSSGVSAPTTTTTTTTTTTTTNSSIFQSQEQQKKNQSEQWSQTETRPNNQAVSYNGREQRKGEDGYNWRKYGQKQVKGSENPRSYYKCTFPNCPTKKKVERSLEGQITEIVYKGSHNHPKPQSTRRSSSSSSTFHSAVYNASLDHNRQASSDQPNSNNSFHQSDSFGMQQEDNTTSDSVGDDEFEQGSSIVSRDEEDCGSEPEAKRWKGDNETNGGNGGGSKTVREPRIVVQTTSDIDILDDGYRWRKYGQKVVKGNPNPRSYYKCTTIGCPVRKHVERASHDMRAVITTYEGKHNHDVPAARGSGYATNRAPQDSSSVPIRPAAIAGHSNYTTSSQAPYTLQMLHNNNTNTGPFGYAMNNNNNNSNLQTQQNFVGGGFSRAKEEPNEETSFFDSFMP

| Binder | binding result (AtWRKY33) | binding result (GmWRP1) |
| --- | --- | --- |
| Pchn0 (dsDNA) DNA 1: GGAACTTGACCTTGACCTTAGGGCTGCAGGAATTCG DNA 2: CGAATTCCTGCAGCCCTAAGGTCAAGGTCAAGTTCC | binds | no binding |
| mPchn0 (dsDNA) DNA 1: GGAACTTGAACTTGAACTTAGGGCTGCAGGAATTCG DNA 2: CGAATTCCTGCAGCCCTAAGTTCAAGTTCAAGTTCC | no binding | no binding |
